B1: SGR_2426r (SGR_2426 protein) (Streptomyces griseus subsp. griseus NBRC 13350) (protein)
chain: MTHTPAWDQKTPVPFPEGFLWGASTAAHQIEGNNTDSDWWVKEHAAGTHIAEPSLDACDSYHRWPEDMDLLASLGFTDYRFSVEWARIEPVEGHFSRAQLAHYRRMVEGAIERGLRPMVTLHHFTVPQWFEARGGWTAEGAVELFARYVAACAPVISEGVSHVCTINEPNMIAVMAGQAKRGDNSFPPAGLPTPDDETTAAVIAAHHAAVKEVRALDAGIQVGWTIANQVYQALPGAEDVTAAYRHPREDVFIEAARGDDWIGVQSYTRTRIGPEGPIPAADDVERTLTTWEYYPTAVGEALRHTAAVVGDVPLIVTENGIATADDSRRVDYYAGALDEVASALADGLDIRGYLAWSALDNYEWGTYKATFGLIAIDWETFERTPRDSAKWLGSLGRTRELPRTAA
notes: full length (no signal peptide), C-terminal His6 tag kept, pET30a, E. coli BL21(DE3); monomer by PISA

Experiments:
[1] = target: T1, SGR_2426r (SGR_2426 protein) (Streptomyces griseus, UniProt B1W1N0, E318G); test: X-ray crystal structure, soaked crystal; assay type: binding; conditions: 500 mM Sop2 soak, about 2 h; subsites -1 and +1; mutant printed E316G once
T1 construct: full length (no signal peptide), C-terminal His6 tag kept, pET30a, E. coli BL21(DE3); monomer by PISA
T1 sequence (B1W1N0 entry or part of it E318G): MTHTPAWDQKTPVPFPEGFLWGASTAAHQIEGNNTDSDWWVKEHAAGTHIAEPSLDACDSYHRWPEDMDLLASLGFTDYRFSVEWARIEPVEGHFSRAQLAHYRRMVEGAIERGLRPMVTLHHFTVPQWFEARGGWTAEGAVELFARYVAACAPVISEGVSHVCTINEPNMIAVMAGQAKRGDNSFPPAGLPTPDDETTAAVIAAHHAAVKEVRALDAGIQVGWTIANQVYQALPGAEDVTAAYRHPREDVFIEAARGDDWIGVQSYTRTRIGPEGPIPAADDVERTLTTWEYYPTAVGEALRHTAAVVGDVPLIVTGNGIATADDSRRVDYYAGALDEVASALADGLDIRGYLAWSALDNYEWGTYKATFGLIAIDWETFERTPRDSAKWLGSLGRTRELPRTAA

purified protein [2] = substrate: O=[N+]([O-])c1ccc(O[C@@H]2O[C@H](CO)[C@@H](O)[C@H](O)[C@H]2O)cc1; test: purified protein; conditions: pH 6.5
purified protein [3] = substrate: O=[N+]([O-])c1ccc(O[C@@H]2O[C@H](CO)[C@H](O)[C@H](O)[C@H]2O)cc1; test: purified protein; conditions: pH 6.5
[4] = substrate: C[C@H]1O[C@@H](Oc2ccc([N+](=O)[O-])cc2)[C@H](O)[C@@H](O)[C@H]1O; test: p-nitrophenol release, biphasic fit; assay type: biochemical, Streptomyces griseus; conditions: pH 6.5, first (stronger) site of biphasic equation
Excerpt: p-nitrophenol release, biphasic fit on SGR_2426r (SGR_2426 protein)

| Molecule | X-ray crystal structure, soaked crystal [1] | Km (purified protein [2]) | Vmax (purified protein [2]) | Vmax/Km (purified protein [2]) | Km (purified protein [3]) | Vmax (purified protein [3]) | Vmax/Km (purified protein [3]) | Km [4] | Vmax [4] | Vmax/Km [4] |
| --- | --- | --- | --- | --- | --- | --- | --- | --- | --- | --- |
| OC[C@H]1O[C@@H](O[C@H]2C(O)O[C@H](CO)[C@@H](O)[C@@H]2O)[C@H](O)[C@@H](O)[C@@H]1O (stereo partly shown) [Sop2, sophorose] | crystals of the E318G mutant prepared without Sop2 were soaked | – | – | – | – | – | – | – | – | – |
| B1 | – | 1000 ± 100 µM | 28 µmol/min/mg | 28000 µL/min/mg | 5800 ± 300 µM | 13 µmol/min/mg | 2300 µL/min/mg | 160 ± 100 µM | 4.6 µmol/min/mg | 29000 µL/min/mg |

Reference: PMC12369401, “A β‐1,2‐glucan‐associated glycoside hydrolase family 1 β‐glucosidase from Streptomyces griseus” (Protein Science : A Publication of the Protein Society, 2025)
